Experimental findings from US6479638 are described below.

Bounds are passed on as bounds.

Test [1] concerns the target DNAX Leukocyte Associated Immunoglobulin-like Receptor (DLAIR-1) (human) (UniProt Q6GTX8). Description: flow cytometry (FACScan) on CEM T cell tumor cells, PE goat-anti-mouse-IgG second step. Background: A flow cytometer gives signals particle by particle.
The target is the same in test [2]. As to the kind of experiment: flow cytometry (FACScan) on Peer T cell tumor cells, PE goat-anti-mouse-IgG second step.
For test [3] the target is unchanged. As to the kind of experiment: flow cytometry (FACScan) on HUT78 T cell tumor cells, PE goat-anti-mouse-IgG second step.
The target is the same in test [4]. Description: flow cytometry (FACScan) on Molt4 T cell tumor cells, PE goat-anti-mouse-IgG second step.
The target is the same in test [5]. As to the kind of experiment: flow cytometry (FACScan) on U937 myeloid tumor cells, PE goat-anti-mouse-IgG second step.
The target is the same in test [6]. Description: flow cytometry (FACScan) on Jurkat T cell tumor cells, PE goat-anti-mouse-IgG second step.
Test [7] has the same target. Description: flow cytometry (FACScan) on HL60 promyeloid tumor cells, PE goat-anti-mouse-IgG second step.

As for DX26 monoclonal antibody, the mean fluorescence intensity in test [1] amounted to 92.7; in test [2], 29.1; in test [3], 25.8; in test [4], 30.7; in test [5], 49.5; in test [6] it was 47.1. The substance also displayed a mean fluorescence intensity in test [7] of 46.9.

control IgG1 (antibody): the mean fluorescence intensity in test [1], in test [2], in test [4], in test [5], in test [6] and in test [7] was below 5 in each case.
